US7052705 (dated 2006)
Bridge positions count the residues as written; N and C are the ends. Ends that are not written are not given here.

T1: VEGFR-2 (human, UniProt P35968)
T1 chain: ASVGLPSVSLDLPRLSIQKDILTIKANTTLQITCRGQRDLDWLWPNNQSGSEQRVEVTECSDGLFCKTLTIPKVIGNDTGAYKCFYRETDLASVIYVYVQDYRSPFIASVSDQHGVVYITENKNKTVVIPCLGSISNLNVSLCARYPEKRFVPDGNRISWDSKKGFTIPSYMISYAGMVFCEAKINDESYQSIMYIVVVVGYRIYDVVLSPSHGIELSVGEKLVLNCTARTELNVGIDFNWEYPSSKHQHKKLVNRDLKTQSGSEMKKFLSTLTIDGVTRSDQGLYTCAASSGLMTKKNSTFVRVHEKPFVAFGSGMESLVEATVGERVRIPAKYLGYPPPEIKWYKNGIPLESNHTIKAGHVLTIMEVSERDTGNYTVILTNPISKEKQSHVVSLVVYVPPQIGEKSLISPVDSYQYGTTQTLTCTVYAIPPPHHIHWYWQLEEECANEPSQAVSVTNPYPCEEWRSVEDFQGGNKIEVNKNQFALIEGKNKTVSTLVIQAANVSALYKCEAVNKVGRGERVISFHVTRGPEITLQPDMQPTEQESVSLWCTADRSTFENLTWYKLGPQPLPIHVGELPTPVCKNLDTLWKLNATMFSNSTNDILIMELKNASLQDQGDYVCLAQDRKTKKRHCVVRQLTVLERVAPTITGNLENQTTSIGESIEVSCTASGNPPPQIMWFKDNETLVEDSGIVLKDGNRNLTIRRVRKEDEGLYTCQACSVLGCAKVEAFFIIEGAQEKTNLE


How the values were obtained:
VEGFR-2 [1] = biological target: T1, VEGFR-2; assay: competition, COS-1
Neuropilin-1 (NP-1) [2] = biological target: T2, Neuropilin-1 (NP-1) (human, UniProt O14786); assay: competition, COS-1
[3] = biological target: T3, VEGFR-2/NP-1 co-expressed (human, UniProt P35968); assay: competition, COS-1
Neuropilin-1 (NP-1) [4] = biological target: T2, Neuropilin-1 (NP-1); assay: competition, COS-1; remark: listed apart in the source
Neuropilin-1 (NP-1) [5] = biological target: T2, Neuropilin-1 (NP-1); assay: competition, Balb/c
Neuropilin-1 (NP-1) [6] = biological target: T2, Neuropilin-1 (NP-1); assay: other, radioligand saturation COS-1
[7] = biological target: T3, VEGFR-2/NP-1 co-expressed; assay: competition, 125I-VEGF165
VEGFR-2 [8] = biological target: T1, VEGFR-2; assay: competition, COS-1 cells, 4C
[9] = biological target: T3, VEGFR-2/NP-1 co-expressed; assay: competition, Balb/c
Target sequence in this assay (chain, as listed by the source, chain 2 of 2, one chain of several): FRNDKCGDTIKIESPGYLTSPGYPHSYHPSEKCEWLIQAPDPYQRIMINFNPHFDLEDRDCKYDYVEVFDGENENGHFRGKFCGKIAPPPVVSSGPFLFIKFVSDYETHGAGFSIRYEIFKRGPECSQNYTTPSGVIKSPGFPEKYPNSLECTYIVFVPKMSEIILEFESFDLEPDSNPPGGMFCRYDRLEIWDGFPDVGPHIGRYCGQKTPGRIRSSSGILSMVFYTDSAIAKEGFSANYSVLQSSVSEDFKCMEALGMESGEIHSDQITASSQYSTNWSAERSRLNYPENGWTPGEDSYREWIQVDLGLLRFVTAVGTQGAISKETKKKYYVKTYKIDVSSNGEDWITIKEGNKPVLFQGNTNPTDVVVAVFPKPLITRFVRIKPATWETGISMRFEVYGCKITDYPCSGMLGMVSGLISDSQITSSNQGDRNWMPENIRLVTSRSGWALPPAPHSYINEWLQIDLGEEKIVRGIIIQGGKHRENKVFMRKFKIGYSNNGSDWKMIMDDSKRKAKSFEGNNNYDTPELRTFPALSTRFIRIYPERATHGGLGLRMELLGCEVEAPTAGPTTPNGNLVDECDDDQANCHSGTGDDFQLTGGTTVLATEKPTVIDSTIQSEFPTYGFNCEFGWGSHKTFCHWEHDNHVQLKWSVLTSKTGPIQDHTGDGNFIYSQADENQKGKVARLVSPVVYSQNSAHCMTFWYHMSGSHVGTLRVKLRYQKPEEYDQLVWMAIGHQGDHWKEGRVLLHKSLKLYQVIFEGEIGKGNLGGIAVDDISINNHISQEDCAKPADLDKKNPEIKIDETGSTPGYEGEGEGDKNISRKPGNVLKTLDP

T2 sequence (O14786 22-923): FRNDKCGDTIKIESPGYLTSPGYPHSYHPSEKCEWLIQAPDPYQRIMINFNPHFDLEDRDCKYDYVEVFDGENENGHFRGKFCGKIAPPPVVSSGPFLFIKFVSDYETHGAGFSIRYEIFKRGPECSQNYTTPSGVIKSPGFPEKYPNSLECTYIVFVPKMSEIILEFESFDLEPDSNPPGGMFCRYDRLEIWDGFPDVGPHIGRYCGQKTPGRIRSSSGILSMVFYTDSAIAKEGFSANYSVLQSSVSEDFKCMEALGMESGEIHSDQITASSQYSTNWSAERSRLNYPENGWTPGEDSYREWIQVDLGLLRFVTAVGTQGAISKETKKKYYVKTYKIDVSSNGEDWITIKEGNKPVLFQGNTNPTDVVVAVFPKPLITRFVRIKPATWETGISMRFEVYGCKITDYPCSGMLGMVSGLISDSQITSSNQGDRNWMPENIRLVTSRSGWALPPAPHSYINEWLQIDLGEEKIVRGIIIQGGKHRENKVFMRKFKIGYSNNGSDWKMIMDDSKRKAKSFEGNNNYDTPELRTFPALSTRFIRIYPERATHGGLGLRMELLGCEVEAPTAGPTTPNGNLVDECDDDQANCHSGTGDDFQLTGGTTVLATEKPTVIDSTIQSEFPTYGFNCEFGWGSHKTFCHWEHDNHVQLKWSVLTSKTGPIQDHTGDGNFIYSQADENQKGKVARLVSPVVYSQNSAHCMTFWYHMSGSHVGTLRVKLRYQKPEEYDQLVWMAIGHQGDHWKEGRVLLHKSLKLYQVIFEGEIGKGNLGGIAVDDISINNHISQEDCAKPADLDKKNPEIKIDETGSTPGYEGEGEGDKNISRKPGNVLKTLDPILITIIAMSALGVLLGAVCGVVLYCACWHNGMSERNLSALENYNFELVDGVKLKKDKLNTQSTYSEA

Binder | binding result (VEGFR-2 [1]) | other results
CAGRGKRCREKQRPSDKPRR (disulfide 1-8) [P6V8-3NCS1-7CCA1] | no binding | –
KGRGKRAAEAQAPSDKPRR [P6V8-3NCSA7,8,10,12] | no binding | –
RRPKGRGKRRREKQRAAAKPRR [AS-4A] | no binding | –
RPCDKPRR [V8] | no binding | binding result (Neuropilin-1 (NP-1) [2]): no binding
CKGRGARCREKQRPSDKPRR (disulfide 1-8) [P6V8-3NCS1-7CCA5] | no binding | –
RRPAAAGKRRREKQRPSDKPRR [AS-1] | no binding | –
RRPKGRGKRAAAKQRPSDKPRR [AS-3] | – | binding result [3]: no binding
VEGF165 (protein) APMAEGGGQNHHEVVKFMDVYQRSYCHPIETLVDIFQEYPDEIEYIFKPSCVPLMRCGGCCNDEGLECVPTEESNITMQIMRIKPHQGQHIGEMSFLQHNKCECRPKKDRARQENPCGPCSERRKHLFVQDPQTCKCSCKNTDSRCKARQLELNERTCRCDKPRR | – | IC50 (Neuropilin-1 (NP-1) [4]): 0.582 nM; IC50 (Neuropilin-1 (NP-1) [5]): 0.158 nM; Kd (Neuropilin-1 (NP-1) [6]): 2.09 nM
AGRGARAAEKQAPSDKPRR [P6V8-3NCSA1,5,7,8,12] | no binding | –
AGRGKARREKQRPSDKPRR [P6V8-3NCSA1A6] | no binding | –
RPSDKPRR [V8CS] | no binding | –
KGAGKARREKQRPSDKPRR [P6V8-3NCSA3A6] | no binding | –
RRPKGRGKRRREKQRPDAVPRR [P6P7] | – | IC50 [7]: 1170 nM
RRPKGRGKRRREKQRP [P6] | – | IC50 [7]: 12200 nM
AGRGARRREKQRPSDKPRR [P6V8-3NCSA1A5] | no binding | –
CKGRGKRCREKQRPSDKPRR (disulfide 1-8; also: capped amino and carboxyl termini, chemistry of caps not given here) [(cap)P6V8-3NCS1-7CC] | no binding | –
RREKQRPCDKPRR [P6V8-9N] | no binding | –
VEGF121 (protein) APMAEGGGQNHHEVVKFMDVYQRSYCHPIETLVDIFQEYPDEIEYIFKPSCVPLMRCGGCCNDEGLECVPTEESNITMQIMRIKPHQGQHIGEMSFLQHNKCECRPKKDRARQEKCDKPRR | – | binding result [3]: no binding; binding result (Neuropilin-1 (NP-1) [2]): no binding; IC50 (VEGFR-2 [8]): 0.312 nM
KGAGARRREKQRPSDKPRR [P6V8-3NCSA3A5] | no binding | –
PKRSRRKGQPRPRGRREKRDRK [RAND1] | no binding | –
RRPKGRGKRRREAAAPSDKPRR [AS-4] | no binding | IC50 [9]: 300 nM; IC50 (Neuropilin-1 (NP-1) [5]): 17.8 nM
KGRGKRRREKQRPCDKPRR [P6V8-3N] | – | IC50 (Neuropilin-1 (NP-1) [5]): 254 nM
CAGRGARCREKQRPSDKPRR (disulfide 1-8) [P6V8-3NCS1-7CCA1A5] | no binding | –
KGRGKRRREKQRPSDKPRR (also: (cap), group not given here) [(cap)P6V8-3NCS] | no binding | –
KGRGKRRRECQRPSCKPRR (disulfide 10-15) [P6V8-3NCSC13C18] | no binding | –
